Data on 1 substance can be found in patent US11072647B2, “TGF-receptor II isoform, fusion peptide, methods of treatment and methods in vitro” (Onsejo Nacional DE Investigation Cientiticay Tecnica, priority 2013, dated 2021).

In this data set the test system is CPFX-treated juvenile rats. As to conditions: rat, in vivo.

Experimental: Thus, the effect of the TβII-SE isoform was analyzed either in CPFX-treated juvenile rats (24 days old) or untreated rats, by intra-articular injections of lentiviral vectors encoding a recombinant protein of the codon-optimized (co) TβRII-SE fused to the constant fragment (Fc) of the human immunoglobulin 1 (IgG1) (Lt.coTβRII-SE/Fc) or the enhanced green fluorescent protein (Lt.eGFP).
Male 24-day-old Wistar rats were housed under controlled conditions at 21±1° C. with 50%±5% relative humidity and a constant light-dark schedule (light, 8 a.m. to 8 p.m.). Food and tap water was provided ad libitum. The rats received ciprofloxacin hydrochloride on day 24 by oral administration of 200 mg/kg of body weight during 10 days. The animals were examined for clinical abnormalities including motility alterations and weighted during the treatment period.
On day 14 after ciprofloxacin treatment, 50 μl viral vectors were injected intra-articularly with either Lt.coTBRII-SE/Fc (2.35×10^6 transducing Units, TU) or Lt.eGFP (6×10^6 TU). Control animals without ciprofloxacin were treated in the same manner.

“coTβRII-SE/Fc: fusion peptide of codon-optimized TβRII-SE and the human IgG1 Fc region, SEQ ID No. 6”: the “X-ray images of knees” value is given as “radiolucent images with irregular borders in the femoral condyle”.
